Reference: patent publication US20090175860A1 (Novartis, published 2009)

Tests used:
[1] = molecular target: T1, full length human c-Met on cells (human, UniProt P08581 25-1390); experiment: flow cytometry, Fab on GTL-16 cells
T1 construct: whole, on cells; NCI-H441 for migration; A549 for autophosphorylation; also called human c-Met GTL-16; c-Met on NCI-H441 cells
Method: (§1) In order to further characterize the anti-c-Met antibodies, the affinity to full length human and cynomolgus c-Met is determined. GTL16, CHO cells overexpressing cynomolgus c-Met or rhesus 4 MBr-5 cells are washed, trypsinised, and suspended in PBS containing 3% FCS (3% FCS/PBS) at 4-C. 2-5×10⁵ cells/sample are resuspended in 140 μl of 3% FCS//PBS containing 5 μg/ml of purified anti-cMet Fabs or serial dilutions thereof. As a positive control 5 μg/ml of DO24 (mouse IgG2a), anti-human c-Met is used. The cells are incubated for 30-60 minutes at 4° C. before being pelleted by centrifugation for 2 min at 2000 rpm (716 g) at 4° C. and washed in 200 μl of in chilled 3% FCS/PBS. The cells are again pelleted by centrifugation and the PBS gently removed. Cells are resuspended in 100 μl of goat anti-human IgG (H+L) PE conjugated (Jackson Cat No. 109-116-088) diluted 1:200 in 3% FCS/0.02% NaN₃/PBS; For the positive control goat anti-mouse IgG (H+L)-PE conjugated (Jackson Cat No. 115-116-146) diluted 1:200 in 3% FCS/PBS is used. Samples are incubated in the dark for 30-60 min at 4° C. Following centrifugation and washing in 200 μl of 3% FCS/0.02%/NaN₃/PBS the cells are resuspended in 100 μl of 3% FCS/PBS and assayed using FACS-array or FACS-Calibur.

[2] = molecular target: T2, cynomolgus c-Met on CHO cells (cynomolgus, UniProt A0A2K5UM36 25-1381, The natural precursor is cleaved into disulfide-linked alpha and beta subunits. It is given here as one mature chain, following the entry's CHAIN feature.); experiment: flow cytometry, Fab on CHO-cyno c-Met cells
T2 construct: also called cyno c-Met; CHO-cMet cyno
T2 sequence (A0A2K5UM36 entry or part of it limits assumed): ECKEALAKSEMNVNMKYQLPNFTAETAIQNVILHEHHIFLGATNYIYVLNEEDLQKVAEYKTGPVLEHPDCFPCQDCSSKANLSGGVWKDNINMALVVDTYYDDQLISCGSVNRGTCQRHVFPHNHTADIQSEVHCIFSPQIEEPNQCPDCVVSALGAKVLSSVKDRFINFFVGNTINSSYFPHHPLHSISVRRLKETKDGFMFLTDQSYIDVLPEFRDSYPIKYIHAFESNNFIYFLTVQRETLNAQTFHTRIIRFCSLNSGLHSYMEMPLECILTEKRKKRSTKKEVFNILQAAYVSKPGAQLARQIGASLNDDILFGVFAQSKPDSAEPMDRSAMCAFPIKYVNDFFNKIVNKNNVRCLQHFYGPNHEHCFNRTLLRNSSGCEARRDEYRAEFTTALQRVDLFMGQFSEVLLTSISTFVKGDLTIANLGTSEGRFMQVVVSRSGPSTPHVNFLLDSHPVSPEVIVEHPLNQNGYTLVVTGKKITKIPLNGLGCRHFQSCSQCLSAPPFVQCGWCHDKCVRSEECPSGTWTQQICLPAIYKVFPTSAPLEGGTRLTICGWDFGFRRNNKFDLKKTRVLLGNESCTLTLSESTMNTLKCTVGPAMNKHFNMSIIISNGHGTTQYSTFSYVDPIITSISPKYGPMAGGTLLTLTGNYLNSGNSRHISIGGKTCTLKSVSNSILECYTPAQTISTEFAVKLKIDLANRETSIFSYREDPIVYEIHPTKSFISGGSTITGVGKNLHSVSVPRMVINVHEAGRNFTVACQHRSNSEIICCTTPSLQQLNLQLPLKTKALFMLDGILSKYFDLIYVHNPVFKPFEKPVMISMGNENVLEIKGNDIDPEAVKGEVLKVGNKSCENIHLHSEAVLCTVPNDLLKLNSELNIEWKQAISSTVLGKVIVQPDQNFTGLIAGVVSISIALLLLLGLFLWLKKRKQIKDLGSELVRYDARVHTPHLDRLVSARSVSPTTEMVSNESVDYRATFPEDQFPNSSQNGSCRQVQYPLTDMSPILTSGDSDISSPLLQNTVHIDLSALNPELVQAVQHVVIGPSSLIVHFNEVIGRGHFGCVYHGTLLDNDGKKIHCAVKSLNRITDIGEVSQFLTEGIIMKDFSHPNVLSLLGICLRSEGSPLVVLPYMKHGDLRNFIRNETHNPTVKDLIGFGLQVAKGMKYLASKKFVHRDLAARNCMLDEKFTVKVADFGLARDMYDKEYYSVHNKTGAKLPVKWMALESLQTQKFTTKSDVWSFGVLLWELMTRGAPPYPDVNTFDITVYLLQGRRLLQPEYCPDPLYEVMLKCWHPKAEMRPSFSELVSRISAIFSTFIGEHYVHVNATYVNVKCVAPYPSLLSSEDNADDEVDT
Method: as §1

[3] = molecular target: T1, full length human c-Met on cells; experiment: flow cytometry, Fab titration on GTL-16 cells
Method: as §1

recombinant human c-Met [4] = molecular target: T3, recombinant human c-Met (human, UniProt P08581 25-932, limits assumed); experiment: SPR (BIAcore), Fab on immobilised human c-Met
T3 construct: Soluble recombinant protein: immobilised on the CM5 chip in Biacore, in solution in the equilibrium titration; The precursor is cleaved into disulfide-linked alpha and beta subunits; also called Hepatocyte Growth Factor Receptor
T3 sequence (P08581 25-932 limits assumed): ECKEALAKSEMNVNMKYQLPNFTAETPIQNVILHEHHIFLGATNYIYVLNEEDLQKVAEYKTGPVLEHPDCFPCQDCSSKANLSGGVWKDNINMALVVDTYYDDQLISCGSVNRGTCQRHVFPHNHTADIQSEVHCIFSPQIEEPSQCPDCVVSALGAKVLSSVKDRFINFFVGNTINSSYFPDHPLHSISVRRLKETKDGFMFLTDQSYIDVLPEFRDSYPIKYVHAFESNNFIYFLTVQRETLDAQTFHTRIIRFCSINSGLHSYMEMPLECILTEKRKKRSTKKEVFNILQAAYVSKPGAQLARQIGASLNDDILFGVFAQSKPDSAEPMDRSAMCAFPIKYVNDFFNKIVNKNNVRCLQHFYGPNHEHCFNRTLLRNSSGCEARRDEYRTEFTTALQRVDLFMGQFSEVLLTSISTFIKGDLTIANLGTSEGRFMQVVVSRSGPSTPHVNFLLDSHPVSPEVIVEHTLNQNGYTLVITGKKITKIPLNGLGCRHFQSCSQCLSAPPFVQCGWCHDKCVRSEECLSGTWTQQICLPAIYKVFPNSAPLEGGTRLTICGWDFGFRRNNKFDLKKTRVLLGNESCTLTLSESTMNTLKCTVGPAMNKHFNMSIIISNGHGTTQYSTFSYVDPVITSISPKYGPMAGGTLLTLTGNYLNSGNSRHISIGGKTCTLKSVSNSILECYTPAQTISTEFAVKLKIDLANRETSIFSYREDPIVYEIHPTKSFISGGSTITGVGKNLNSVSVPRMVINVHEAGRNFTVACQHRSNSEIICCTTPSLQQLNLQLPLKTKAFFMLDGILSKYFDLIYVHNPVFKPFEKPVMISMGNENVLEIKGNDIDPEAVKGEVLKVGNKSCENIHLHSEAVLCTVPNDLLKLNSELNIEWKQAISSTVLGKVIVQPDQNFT
Method: (§2) Using these clones, kinetic SPR analysis is performed on a CM5 chip (Biacore, Sweden) which had been coated with a density of ˜400 RU of either recombinant human c-Met, in 10 mM Na-acetate pH 4.5 using standard EDC-NHS amine coupling chemistry. […] PBS (136 mM NaCl, 2.7 mM KCl, 10 mM Na2HPO4 , 1.76 mM KH2PO4 pH 7.4) is used as the running buffer. The Fab preparations are applied in concentration series of 16-500 nM at a flow rate of 20 μl/min. Association phase is set to 60 s and dissociation phase to 120 s.

[5] = molecular target: T4, rhesus c-Met on 4MBr-5 cells (rhesus); experiment: flow cytometry, Fab titration on rhesus 4MBr-5 cells
T4 construct: whole, on cells
Method: as §1

recombinant human c-Met [6] = molecular target: T3, recombinant human c-Met; experiment: SPR (BIAcore), c-Met amine-coupled on CM5 chip, Fab 16-500 nM as analyte
Method: as §2

[7] = molecular target: T2, cynomolgus c-Met on CHO cells; experiment: flow cytometry, Fab titration on CHO cells overexpressing cynomolgus c-Met
Method: as §1

[8] = molecular target: T2, cynomolgus c-Met on CHO cells; experiment: flow cytometry, Fab on CHO-cyno c-Met cells; remark: listed apart in the source
Method: as §1
(§3) Using the assay conditions described above, the affinities for the affinity-optimized anti-c-Met Fabs are determined in solution. Affinities are determined for antibodies with KDs below 4.6 pM to human c-Met. FACs based analysis of binding to cyno-c-Met expressed on CHO cells, as described above, is carried out.

recombinant human c-Met [9] = molecular target: T3, recombinant human c-Met; experiment: solution equilibrium titration (SET), ECL detection (BioVeris), Fab with human c-Met in solution
Method: Electrochemiluminescence (ECL) based affinity determination in solution and data evaluation are basically performed as described by Haenel et al., 2005. A constant amount of Fab is equilibrated with different concentrations (serial 3ⁿ dilutions) of human c-Met (4 nM starting concentration) in solution. Biotinylated human c-Met coupled to paramagnetic beads (M-280 Streptavidin, Dynal), and BV-Tag™ (BioVeris Europe, Witney, Oxfordshire, UK) labelled anti-human (Fab)′₂ (Dianova) is added and the mixture incubated for 30 min. Subsequently, the concentration of unbound Fab is quantified by ECL detection using the M-SERIES® 384 analyzer (BioVeris Europe).
as §3

T1 sequence (P08581 25-1390): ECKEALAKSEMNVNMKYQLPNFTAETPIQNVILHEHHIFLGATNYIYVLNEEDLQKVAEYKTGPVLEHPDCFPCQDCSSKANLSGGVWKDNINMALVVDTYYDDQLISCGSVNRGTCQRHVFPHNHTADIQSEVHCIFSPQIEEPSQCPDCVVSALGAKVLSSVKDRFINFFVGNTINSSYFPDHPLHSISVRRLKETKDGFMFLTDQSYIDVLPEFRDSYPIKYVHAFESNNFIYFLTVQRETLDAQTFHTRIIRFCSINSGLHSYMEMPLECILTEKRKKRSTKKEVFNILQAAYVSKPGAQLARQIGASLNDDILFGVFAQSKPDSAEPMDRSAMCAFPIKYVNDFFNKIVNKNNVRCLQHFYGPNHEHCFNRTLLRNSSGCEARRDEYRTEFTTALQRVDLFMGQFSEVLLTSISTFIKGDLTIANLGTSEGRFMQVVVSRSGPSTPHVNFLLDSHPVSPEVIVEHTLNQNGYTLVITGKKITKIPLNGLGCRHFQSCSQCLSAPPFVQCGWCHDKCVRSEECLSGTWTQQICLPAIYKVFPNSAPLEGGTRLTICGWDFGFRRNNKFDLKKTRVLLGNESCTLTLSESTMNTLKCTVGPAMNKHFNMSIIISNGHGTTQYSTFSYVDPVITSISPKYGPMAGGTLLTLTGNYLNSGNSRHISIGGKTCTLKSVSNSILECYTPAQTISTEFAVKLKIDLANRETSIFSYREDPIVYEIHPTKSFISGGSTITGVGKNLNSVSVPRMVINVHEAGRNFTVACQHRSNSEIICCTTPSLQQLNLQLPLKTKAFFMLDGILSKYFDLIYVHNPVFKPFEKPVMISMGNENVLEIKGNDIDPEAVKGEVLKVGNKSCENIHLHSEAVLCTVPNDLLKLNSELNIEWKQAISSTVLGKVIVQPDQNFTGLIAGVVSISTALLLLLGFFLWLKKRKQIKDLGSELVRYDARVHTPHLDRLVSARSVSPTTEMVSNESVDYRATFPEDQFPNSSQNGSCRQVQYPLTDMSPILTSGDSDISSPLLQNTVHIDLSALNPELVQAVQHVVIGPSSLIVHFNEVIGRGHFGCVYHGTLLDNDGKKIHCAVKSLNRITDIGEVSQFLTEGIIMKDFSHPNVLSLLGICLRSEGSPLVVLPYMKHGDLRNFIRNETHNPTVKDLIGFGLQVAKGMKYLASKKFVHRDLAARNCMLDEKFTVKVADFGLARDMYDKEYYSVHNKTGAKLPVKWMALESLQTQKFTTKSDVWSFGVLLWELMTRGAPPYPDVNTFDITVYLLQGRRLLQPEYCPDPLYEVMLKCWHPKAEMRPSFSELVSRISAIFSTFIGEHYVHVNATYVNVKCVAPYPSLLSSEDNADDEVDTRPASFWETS

Binder | Kd [1] [nM] | Kd [2] [nM] | Kd [3] [nM] | Kd (recombinant human c-Met [4]) [nM] | Kd [5] [nM] | Kd (recombinant human c-Met [6]) [nM] | Kd [7] [nM] | Kd [8] [nM] | Kd (recombinant human c-Met [9]) [nM]
04687 (parental anti-cMet Fab antibody) (Fab, V domains shown, carries two C-terminal tags (FLAG and 6xHis)) VH: QVQLVQSGAEVKKPGSSVKVSCKASGGTFSSYAISWVRQAPGQGLEWMGGIDPFGTANYAQKFQGRVTITADESTSTAYMELSSLRSEDTAVYYCARVYQDVWGQGTLVTVSS VL: DIVMTQSPDSLAVSLGERATINCRSSQSILYGINNNFLGWYQQKPGQPPKLLIYWASTRESGVPDRFSGSGSGTDFTLTISSLQAEDVAVYYCQQYYNHPHTFGQGTKVEIKR | 4 | 1.3 | 5.7 | 0.8 | 1.2 | 0.8 | 1.1 | – | –
05185 (affinity-improved anti-cMet Fab antibody) (Fab, V domains shown) VH: QVQLVQSGAEVKKPGSSVKVSCKASGGTFSSYAISWVRQAPGQGLEWMGGIDPIMGTEYAQKFQGRVTITADESTSTAYMELSSLRSEDTAVYYCARVYQDVWGQGTLVTVSS VL: DIVMTQSPDSLAVSLGERATINCRSSQSILYGINNNFLGWYQQKPGQPPKLLIYWASTRESGVPDRFSGSGSGTDFTLTISSLQAEDVAVYYCQQYAYEPNTFGQGTKVEIKR | – | – | – | – | – | – | – | 0.00029 | 0.0046
04536 (parental anti-cMet Fab antibody) (Fab, V domains shown, carries two C-terminal tags (FLAG and 6xHis)) VH: QVQLVQSGAEVKKPGASVKVSCKASGYTFTGYYMNWVRQAPGQGLEWMGIINPWTGNTNYAQKFQGRVTMTRDTSISTAYMELSSLRSEDTAVYYCARDPGFFYYTPSDLWGQGTLVTVSS VL: DIELTQPPSVSVAPGQTARISCSGDSIGNKYVHWYQQKPGQAPVLVIYADSDRPSGIPERFSGSNSGNTATLTISGTQAEDEADYYCQAYDSSMLRVFGGGTKLTVLG | 1.7 | 229 | 0.4 | 1.4 | 0.1 | 1.4 | 0.5 | – | –

More lines, now with the values ahead:

Kd [1] [nM] | Kd [2] [nM] | Kd [3] [nM] | Kd (recombinant human c-Met [4]) [nM] | Kd [5] [nM] | Kd (recombinant human c-Met [6]) [nM] | Kd [7] [nM] | Kd [8] [nM] | Kd (recombinant human c-Met [9]) [nM] | Binder
– | – | – | – | – | – | – | 0.00068 | 0.0036 | 05097 (affinity-improved anti-cMet Fab antibody) (Fab, V domains shown) VH: QVQLVQSGAEVKKPGSSVKVSCKASGGTFSSYAISWVRQAPGQGLEWMGGIDPFGTANYAQKFQGRVTITADESTSTAYMELSSLRSEDTAVYYCARVYQDVWGQGTLVTVSS VL: DIVMTQSPDSLAVSLGERATINCRSSQSILYGINNNFLGWYQQKPGQPPKLLIYWASTRESGVPDRFSGSGSGTDFTLTISSLQAEDVAVYYCQQYAFGWTFGQGTKVEIKR
– | – | – | – | – | – | – | 0.0003 | 0.0021 | 05098 (affinity-improved anti-cMet Fab antibody) (Fab, V domains shown) VH: QVQLVQSGAEVKKPGSSVKVSCKASGGTFSSYAISWVRQAPGQGLEWMGGIDPFGTANYAQKFQGRVTITADESTSTAYMELSSLRSEDTAVYYCARVYQDVWGQGTLVTVSS VL: DIVMTQSPDSLAVSLGERATINCRSSQSILYGINNNFLGWYQQKPGQPPKLLIYWASTRESGVPDRFSGSGSGTDFTLTISSLQAEDVAVYYCLQYSDEPWTFGQGTKVEIKR
– | – | 1.2 | – | 0.3 | 11.2 | 0.3 | – | – | 04682 (parental anti-cMet Fab antibody) (Fab, V domains shown, carries two C-terminal tags (FLAG and 6xHis)) VH: QVQLVQSGAEVKKPGESLKISCKGSGYSFTNYGIAWVRQMPGKGLEWMGIIYPSDSYTNYSPSFQGQVTISADKSISTAYLQWSSLKASDTAMYYCARMSYDYQHQAPSMDSWGQGTLVTVSS VL: DIVLTQPPSVSGAPGQRVTISCSGSSSNIGSNYVIWYQQLPGTAPKLLIYDDTNRPSGVPDRFSGSKSGTSASLAITGLQSEDEADYYCSTYDNYQAGWVFGGGTKLTVLG
